Results on one molecule are retold here after patent US20210403602A1 (Bristol-Myers Squibb, published 2021).

The target of test [1] is T1, denatured recombinant human IDO protein with a 6-His tag and thrombin site linker (His-Tb-IDO) (human, UniProt P14902 1-403).
T1 construct: Immunogen and ELISA coating antigen, used in denatured form; also called denatured tagged antigen
Briefly: direct ELISA of hybridoma supernatants on plates coated with denatured His-Tb-IDO at 2 ug/mL. The method, then:
After eleven days, hybridoma culture supernatants were collected and screened by direct ELISA for specific binding to denatured His-Tb-IDO. Briefly, 96-well polystyrene microplates (Corning 9018) were coated overnight at 4C with 60 uL of denatured tagged antigen at 2 ug/mL in PBS. The plates were blocked with 200 uL/well of assay buffer containing 0.5% bovine serum albumin in PBS and washed. After the blocking step, 100 uL of supernatant from individual hybridoma culture wells were added and incubated for one hour on a plate shaker at room temperature. The plates were washed three times with PBS and 100 ul of F(ab′)₂ fragment goat anti-mouse IgG Fcγ (1:1000 dilution) (Jackson ImmunoResearch 115-036-071) was added and incubated for 1 hour at RT and washed again with PBS. The plates were then developed with 100 ul/well of ABTS HRP substrate (Surmodics ABTS-1000-01) for 5 to 10 minutes, and analyzed using a PerkinElmer EnVision microplate reader at 405 nm. The data was analyzed using TIBCO Spotfire.
Background: In an ELISA, binding on a coated surface is turned into a signal by an enzyme label.

The target of test [2] is T2, human Indoleamine 2,3-dioxygenase (IDO) in fixed cells and tissues (human, UniProt P14902 1-403).
T2 construct: also called IDO1; human IDO
T2 sequence (P14902 whole entry): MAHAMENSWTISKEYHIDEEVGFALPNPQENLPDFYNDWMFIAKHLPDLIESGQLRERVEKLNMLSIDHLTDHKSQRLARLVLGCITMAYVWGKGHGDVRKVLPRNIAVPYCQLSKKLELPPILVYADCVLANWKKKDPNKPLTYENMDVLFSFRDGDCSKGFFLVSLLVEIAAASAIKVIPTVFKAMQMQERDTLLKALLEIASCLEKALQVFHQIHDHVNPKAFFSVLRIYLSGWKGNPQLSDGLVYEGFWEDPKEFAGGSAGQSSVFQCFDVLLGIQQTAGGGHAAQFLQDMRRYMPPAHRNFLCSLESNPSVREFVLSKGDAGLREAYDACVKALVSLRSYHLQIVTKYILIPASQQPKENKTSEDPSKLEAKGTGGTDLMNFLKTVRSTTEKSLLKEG
The test is described as follows: immunohistochemistry on FFPE H1048 cells and cervical SCC tissue, HALO image analysis; antibody concentration printed on the sheet as 0.5 ug/ml, given in the legend as 0.05 ug/ml. The procedure: To further develop a user and clinical friendly assay, mAb 1E7 was optimized for automated IHC using the Leica BondRX platform. The Bond Polymer Refine Detection System (Leica, catalog #DS9800) was used for the detection of IDO1 and all incubations were carried out at room temperature. Briefly, slides were deparaffinized and rehydrated following routine histology procedures. The slides were loaded onto the Leica BondRX automated IHC stainer and antigen retrieved with either the Bond Epitope Retrieval Solution 1 (Leica, catalog #AR9961) or 2 (Leica, catalog #AR9640) for 20 minutes at 95° C. Peroxidase block from the Bond Polymer Refine Detection kit (Leica, catalog #DS9800) was applied to the slides for 10 min, followed by non-specific binding blocking using protein block (Agilent-DAKO, catalog #X0909) supplemented with 0.5% human gamma globulins (Sigma, catalog #G-4386) for 20 min. Primary antibody 1E7 was incubated at 0.03 or 0.05 μg/ml for 60 minutes, and followed by rabbit anti-mouse linker and then anti-rabbit Poly-HRP-IgG from the Bond Polymer Refine Detection Kit for 30 min each step. […] Whole slide digital images of stained slides were captured and viewed using Aperio AT2 ScanScope and e-Slide Manager (Leica), and then analyzed by a pathologist for manual score or with Halo software (Indica) for quantitative image analysis.

T1 sequence (P14902 other isoform, or with tags, fused parts or gaps limits assumed): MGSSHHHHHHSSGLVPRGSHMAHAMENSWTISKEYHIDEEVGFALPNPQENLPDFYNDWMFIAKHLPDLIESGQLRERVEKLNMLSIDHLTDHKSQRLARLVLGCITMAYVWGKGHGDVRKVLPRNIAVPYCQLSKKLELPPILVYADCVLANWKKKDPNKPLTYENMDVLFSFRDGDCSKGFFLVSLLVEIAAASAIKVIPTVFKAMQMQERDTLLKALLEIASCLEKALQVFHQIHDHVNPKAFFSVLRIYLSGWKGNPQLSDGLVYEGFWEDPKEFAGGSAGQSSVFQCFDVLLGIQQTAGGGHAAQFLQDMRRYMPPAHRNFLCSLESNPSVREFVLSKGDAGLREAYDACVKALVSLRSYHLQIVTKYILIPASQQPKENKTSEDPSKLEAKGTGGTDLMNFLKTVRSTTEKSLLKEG

B1: anti-IDO monoclonal antibody 1E7 (antibody, mouse IgG1, kappa, V domains shown)
VH: QVQLQQSGAELAKPGASVKMSCKTSGYTFTSYWMHWVKQRPGQGLEWIGYINPTTGYTDCNQKFKDKATLTADKSSNTAYLQLSSLTSEDSAVYYCARSAMFGRGWGQGTTLTVSS
VL: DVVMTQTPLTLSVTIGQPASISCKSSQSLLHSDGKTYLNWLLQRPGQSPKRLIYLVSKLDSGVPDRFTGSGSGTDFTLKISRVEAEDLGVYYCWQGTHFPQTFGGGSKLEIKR
notes: also called mAb 1E7; IDO mAb 1E7
As to B1, the binding result in test [1] and in test [2] was “binds” throughout.
